Source: article PMC3289634
“And” between values parts separate entries of the source, which are not always exact repeats. Equal values may be shown once.

What was measured:
Max-E47 protein chimera [1] = molecular target: Max-E47 protein chimera (UniProt P61244); experiment: AUC; sedimentation velocity, 20.0°C, 50,000 rpm, Rayleigh interference; loading concentrations 3-130 µM; 20 mM Tris pH 8.0, 0.1 M NaCl, 10 mM 2-mercaptoethanol, 5% (v/v) glycerol
Max-E47 protein chimera [2] = molecular target: Max-E47 protein chimera (UniProt P61244); experiment: AUC; sedimentation equilibrium, 16.0°C, 14,000-35,000 rpm, Rayleigh interference; 20 mM Tris pH 8.0, 0.15 M NaCl, 10 mM 2-mercaptoethanol; loading concentrations 5-25; the constant is of dimer to monomers
Max-E47 protein chimera [3] = molecular target: Max-E47 protein chimera (UniProt P61244); experiment: SEC; Superdex-75 column, against molecular weight markers
[4] = molecular target: Max-E47YF cloning variant (Max-E47-V51Y/V59F) (UniProt P61244); experiment: AUC; sedimentation equilibrium, 16.0°C, 14,000-35,000 rpm, Rayleigh interference; 20 mM Tris pH 8.0, 0.15 M NaCl, 10 mM 2-mercaptoethanol; loading concentrations 5-25; the constant is of dimer to monomers

Substance: Max-E47 protein chimera (from UniProt P61244 22-36; P15923-2 349-400) (designed binder)
- stoichiometry N (Max-E47 protein chimera [1]): 2 and 4
- stoichiometry N (Max-E47 protein chimera [2]): 2 and 4
- stoichiometry N (Max-E47 protein chimera [3]): 2

Substance: Max-E47YF cloning variant (Max-E47-V51Y/V59F) (from UniProt P61244 22-36) (designed binder)
- Kd [4]: < 1 nM
- stoichiometry N [4]: 2
